Data from PMC7031210.

Biological target: T1, RecA (B. subtilis) (UniProt P16971)
T1 sequence: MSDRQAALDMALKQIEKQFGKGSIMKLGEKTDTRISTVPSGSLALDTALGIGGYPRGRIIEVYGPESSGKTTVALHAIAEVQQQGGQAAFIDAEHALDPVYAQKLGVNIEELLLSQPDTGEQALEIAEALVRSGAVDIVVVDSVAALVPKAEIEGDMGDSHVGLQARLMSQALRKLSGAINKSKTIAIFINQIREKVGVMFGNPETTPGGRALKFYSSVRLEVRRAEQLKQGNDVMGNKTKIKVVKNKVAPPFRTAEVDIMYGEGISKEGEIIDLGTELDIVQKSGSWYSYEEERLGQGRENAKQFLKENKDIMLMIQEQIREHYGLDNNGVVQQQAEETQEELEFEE

B1: RarA K51A (enzyme)
chain: MKPLAYRMRPTKIEDIIGQQHLVAEDKIIGRMVQAKHLSSMILYGPPGIGATSIATAIAGSTSIAFRKLNAVINNKKDMEIVAQEAKMSGQVILILDEVHRLDKGKQDFLLPYLENGMIILIGATTANPYHAINPAIRSRTQIFELEPLTPELIKQALERALHDEHRGLGTYSVSIDDQAMEHFAHGCGGDVRSALNALELAVLSTKESADGEIHITLETAEECLQKKSFSHDKDGDAHYDVLSAFQKSIRGSDANAALHYLARLIEAGDLESIARRLLVIAYEDIGLASPQAGPRVLNAIQTAERVGFPEARIPLANAVIELCLSPKSNSAILAIDEALADIRAGKIGDVPKHLKDAHYKGAQELGRGIDYKYPHNYDNGWVEQQYLPDPLKNKQYYKPKQTGKFESALKQVYDKLMKRK
With B1 the maximal rate of ssDNA-dependent ATP hydrolysis of RecA (650 nM) in the presence of RarA K51A (100 nM), coupled spectrophotometric ATPase assay, 5 mM ATP, 30 min at 37°C was 8.8 min⁻¹.
